Values joined by “and” are separate entries in the source; they are usually repeats but may differ in a detail not shown here. Equal entries are not always repeated. One block for each substance: values may come before it.
Experiments:
[1] = target: Fc-GPVI-nt (immunoadhesin: extracellular domain of human GPVI fused via Gly-Gly-Arg to human IgG Fc, dimer) (human); experiment: competition ELISA, immobilized collagen as competitor
peptide 7 (human) = target: T1, peptide 7 (human); experiment: PepSpot peptide array, control incubation
T1 sequence (peptide, N-terminus acetylated): LCLGRVPAQSGPL

peptide 117 (human) = target: T2, peptide 117 (human); experiment: PepSpot peptide array, control incubation
T2 sequence (peptide, N-terminus acetylated): SFTNKVFTTETSR

peptide 118 (human) = target: T3, peptide 118 (human); experiment: PepSpot peptide array, control incubation
T3 sequence (peptide, N-terminus acetylated): TNKVFTTETSRSI

[2] = target: mouse GPVI on mouse platelets (mouse) (UniProt P0C191); experiment: cell-based or functional assay
Sequence of mouse GPVI on mouse platelets (mouse) (P0C191 22-313): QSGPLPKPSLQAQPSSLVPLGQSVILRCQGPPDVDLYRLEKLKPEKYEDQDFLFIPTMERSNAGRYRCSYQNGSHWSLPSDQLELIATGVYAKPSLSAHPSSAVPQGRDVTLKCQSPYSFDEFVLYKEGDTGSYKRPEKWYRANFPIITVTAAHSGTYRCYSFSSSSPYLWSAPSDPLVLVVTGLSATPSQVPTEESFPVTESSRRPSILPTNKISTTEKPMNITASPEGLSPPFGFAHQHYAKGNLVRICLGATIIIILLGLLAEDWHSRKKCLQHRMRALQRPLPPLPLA

Sequence of Fc-GPVI-nt (immunoadhesin: extracellular domain of human GPVI fused via Gly-Gly-Arg to human IgG Fc, dimer) (human) (chain, as listed by the source limits assumed): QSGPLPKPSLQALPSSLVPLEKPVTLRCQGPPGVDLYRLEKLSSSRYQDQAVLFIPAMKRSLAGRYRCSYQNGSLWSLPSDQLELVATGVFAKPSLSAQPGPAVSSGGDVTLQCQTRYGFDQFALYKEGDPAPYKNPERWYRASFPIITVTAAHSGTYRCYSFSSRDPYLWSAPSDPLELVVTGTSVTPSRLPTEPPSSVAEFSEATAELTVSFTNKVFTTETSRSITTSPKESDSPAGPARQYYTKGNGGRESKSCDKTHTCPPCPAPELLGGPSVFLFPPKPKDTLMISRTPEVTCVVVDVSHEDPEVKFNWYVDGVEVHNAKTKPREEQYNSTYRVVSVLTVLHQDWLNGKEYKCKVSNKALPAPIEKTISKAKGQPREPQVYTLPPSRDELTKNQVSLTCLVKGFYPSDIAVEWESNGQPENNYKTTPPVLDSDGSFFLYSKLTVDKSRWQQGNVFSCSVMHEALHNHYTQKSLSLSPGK

concentration required to reduce Fc-GPVI-nt binding by more than 50% [1]: 100 µg/mL
Substance: soluble collagen (solubilized fibrillar collagen) (ligand)

LU (Light Units) (peptide 7 (human)): 239 LU
LU (Light Units) (peptide 117 (human)): 377 LU
LU (Light Units) (peptide 118 (human)): 354 LU
Substance: anti-rat-HRP (Sigma A9037) (antibody)

ATP release [2]: 1.09 nM ATP
platelet aggregation of mouse platelet-rich plasma after stimulation with 2 µg collagen/ml [2]: 2% and 1.5%
Substance: monoclonal antibody anti GPVI (JAQ1)
